Laboratory results as given in the Immune Epitope Database (IEDB).

Columns and labels:
Settings in all cases: source organism: Rickettsia bellii OSU 85-389
[1] = molecular target: HLA-B*08:01; assay: IEDB peptide-MHC binding, purified MHC/competitive/fluorescence; filed as Kd, often an IC50 or EC50 that approximates it; ≥ and ≤ were set here for values at or beyond the usual limits of such assays
[2] = molecular target: HLA-B*27:05; assay: as above
[3] = molecular target: HLA-A*01:01; assay: as above
[4] = molecular target: HLA-A*30:02; assay: as above
[5] = molecular target: HLA-B*14:02; assay: as above
[6] = molecular target: HLA-A*30:01; assay: as above
[7] = molecular target: HLA-A*02:01; assay: IEDB peptide-MHC binding, purified MHC/direct/fluorescence; filed as Kd, often an IC50 or EC50 that approximates it; ≥ and ≤ were set here for values at or beyond the usual limits of such assays
[8] = molecular target: HLA-A*03:01; assay: as above
[9] = molecular target: HLA-B*51:01; assay: as above
[10] = molecular target: HLA-B*46:01; assay: as above
[11] = molecular target: HLA-A*29:02; assay: as above
[12] = molecular target: HLA-A*68:02; assay: as above
[13] = molecular target: HLA-B*15:01; assay: as above
[14] = molecular target: HLA-A*26:01; assay: as above
[15] = molecular target: HLA-B*57:01; assay: as above
[16] = molecular target: HLA-A*24:03; assay: as above
[17] = molecular target: HLA-B*18:01; assay: as above
[18] = molecular target: HLA-B*27:03; assay: as above
[19] = molecular target: HLA-B*15:17; assay: as above
[20] = molecular target: HLA-B*39:01; assay: as above
[21] = molecular target: HLA-A*02:11; assay: as above
[22] = molecular target: HLA-A*02:03; assay: as above
[23] = molecular target: HLA-A*02:12; assay: as above
[24] = molecular target: HLA-A*02:16; assay: as above
[25] = molecular target: HLA-A*02:19; assay: as above

With EDFEIFYNL the Kd [1] was ≥ 5 µM, the Kd [2] was ≥ 5 µM and the Kd [3] was ≥ 5 µM. For the same sequence, the Kd [4] was ≥ 5 µM, the Kd [5] was ≥ 5 µM and the Kd [6] was ≥ 5 µM. For the same sequence, the Kd [7] was ≥ 20 µM, the Kd [8] was ≥ 20 µM and the Kd [9] was ≥ 20 µM. The Kd [10] was ≥ 20 µM, the Kd [11] was ≥ 20 µM and the Kd [12] was 0.144 µM. The Kd [13] was ≥ 20 µM, the Kd [14] was ≥ 20 µM and the Kd [15] was ≥ 20 µM. For the same sequence, the Kd [16] was ≥ 20 µM, the Kd [17] was ≥ 20 µM and the Kd [18] was ≥ 20 µM. For the same sequence, the Kd [19] was ≥ 20 µM, the Kd [20] was ≥ 20 µM and the Kd [21] was ≥ 20 µM. The Kd [22] was ≥ 20 µM, the Kd [23] was ≥ 20 µM and the Kd [24] was ≥ 20 µM. The Kd [25] was ≥ 20 µM.
